The conditions of the data set: Kitasatospora aureofaciens; pH 7; Thermal; CD; MOPS 30 mM; reversible: yes(>95%); whole UniProt chain shown.

B1: Guanyl-specific ribonuclease Sa wild type, P05798 (protein)
chain: DVSGTVCLSALPPEATDTLNLIASDGPFPYSQDGVVFQNRESVLPTQSYGYYHEYTVITPGARTRGTRRIITGEATQEDYYTGDHYATFSLIDQTC
Regarding B1, the Tm was determined as 48.4 °C and the “unfolding enthalpy (van 't Hoff)” value came to 95 kcal/mol.

Source of the values: FireProtDB (doi:10.1074/jbc.m304177200).
